Results on 10 molecules are retold here after US20190071480A1 (Biogen, published 2019).

Bridges are numbered along the chain shown (N, C = ends).

For assay [1], the target named is T1, extracellular domain of activin receptor type IIB (ActRIIBecd), biotinylated (Homo sapiens (Human), UniProt Q13705 27-117, amino-biotinylated with amine-PEG3-Biotin).
T1 construct: immobilised on a streptavidin-coated sensor chip; also called biotinylated ActRIIBecd; extracellular domain of ActRIIB
T1 sequence: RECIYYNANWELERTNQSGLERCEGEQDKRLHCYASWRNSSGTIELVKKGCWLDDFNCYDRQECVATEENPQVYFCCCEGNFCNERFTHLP
Nature of the assay: BIAcore SPR as Example 5 (method not restated); SD ±1.09 nM. As for the experimental part: (§1) Biosensor experiments. In one embodiment, experiments were performed on a BIAcore™ T100/T200 instrument (Pharmacia Biosensor AB) in the multichannel mode (serial flow path involving flow cells 1+2+3+4). Flow rate was 10 μl/min; temperature was 25° C.; and data were recorded at 2.5 points/s. All four segments of a sensor chip CMS were coated with streptavidin (Sigma) to a density of 2000 pg/mm² (2000 resonance units) by the aminocoupling procedure. ActRIIBecd (10 mg) and amine-PEG3-Biotin (10 mg, Pierce, Rockford, Ill.) were dissolved in 200 μl H₂O and 10 mg NaCNBH₃ was added to prepare biotinylated ActRIIBecd. The reaction mixture was heated at 70° C. for 24 h, after that a further 10 mg NaCNBH₃ was added and the reaction was heated at 70° C. for another 24 h. After cooling to room temperature, the mixture was desalted with the spin column (3,000 molecular weight cut off (MWCO)). […] Sensograms were recorded during flow of the analyte (the ActRIIBecd-associated polypeptides (i.e., domains) as previously described) first through flow cell 1 (control) then through flow cell 2 (biotinylated ActRIIBecd). […] The sensograms obtained at 1.11, 3.33, 10, 30, and 90 nM analyte were evaluated for equilibrium binding, association rate, and dissociation rate by using the programs supplied with the instrument (BIA evaluation 2.1; Software Handbook. 1995; Pharmacia Biosensor AB).
On the technique in general: In SPR one partner is held on a chip, and binding of the other changes the refractive index at the surface.

Assay [2] addresses T1, extracellular domain of activin …. Nature of the assay: Mean KD column of Table 5; method not restated (BIAcore as Example 5); species also listed in Table 4. How it is done:
Biosensor experiments. In one embodiment, experiments were performed on a BIAcore™ T100/T200 instrument (Pharmacia Biosensor AB) in the multichannel mode (serial flow path involving flow cells 1+2+3+4). Flow rate was 10 μl/min; temperature was 25° C.; and data were recorded at 2.5 points/s. All four segments of a sensor chip CMS were coated with streptavidin (Sigma) to a density of 2000 pg/mm² (2000 resonance units) by the aminocoupling procedure. ActRIIBecd (10 mg) and amine-PEG3-Biotin (10 mg, Pierce, Rockford, Ill.) were dissolved in 200 μl H₂O and 10 mg NaCNBH₃ was added to prepare biotinylated ActRIIBecd. The reaction mixture was heated at 70° C. for 24 h, after that a further 10 mg NaCNBH₃ was added and the reaction was heated at 70° C. for another 24 h. After cooling to room temperature, the mixture was desalted with the spin column (3,000 molecular weight cut off (MWCO)). Biotinylated ActRIIBecd was collected, freeze-dried and used for streptavidin (SA) chip preparation. Amino-biotinylated ActRIIBecd was then immobilized independently on flow cells 2-4 for 10 minutes at a flow rate of 5 μL/min and a concentration of 20 μM in 10 mM sodium acetate, pH 4.0, at a density of 50-250 resonance units (RU). The stored polypeptides were dissolved in glycine buffer (2.5 g of glycine, 0.5 g of sucrose, 370 mg of L-glutamate, 10 mg of sodium chloride, and 10 mg of Tween 80 in 100 mL water, pH 4.5) to prepare 10 mg/mL solution and then diluted with previous glycine buffer to prepare analytes with various concentration. Sensograms were recorded during flow of the analyte (the ActRIIBecd-associated polypeptides (i.e., domains) as previously described) first through flow cell 1 (control) then through flow cell 2 (biotinylated ActRIIBecd). The sensogram obtained for flow cell 1 was subtracted from the sensogram obtained for flow cell 2. The sensograms obtained at 1.11, 3.33, 10, 30, and 90 nM analyte were evaluated for equilibrium binding, association rate, and dissociation rate by using the programs supplied with the instrument (BIA evaluation 2.1; Software Handbook. 1995; Pharmacia Biosensor AB).

For assay [3] the target is unchanged. Put plainly: BIAcore SPR as Example 5 (method not restated); SD ±1.70 nM. As for the experimental part:
as §1

Assay [4] has the same target. Put plainly: BIAcore SPR as Example 5 (method not restated); SD ±1.41 nM. How it is done:
as §1

The target is the same in assay [5]. Put plainly: BIAcore SPR as Example 5 (method not restated); SD ±2.89 nM. How it is done:
as §1

The target is the same in assay [6]. Nature of the assay: BIAcore SPR as Example 5 (method not restated); SD ±1.98 nM. As for the experimental part:
as §1

The target is the same in assay [7]. Nature of the assay: BIAcore SPR as Example 5 (method not restated); SD ±2.06 nM. How it is done: as §1
Assay [8] has the same target. Put plainly: BIAcore SPR, biotinylated ActRIIBecd on chip; SD ±16.41 nM. How it is done:
as §1

The target is the same in assay [9]. Nature of the assay: BIAcore SPR as Example 5 (method not restated); SD ±2.21 nM. How it is done: as §1
The target is the same in assay [10]. Nature of the assay: BIAcore SPR as Example 5 (method not restated); SD ±1.56 nM. How it is done: as §1
For assay [11] the target is unchanged. Nature of the assay: BIAcore SPR as Example 5 (method not restated); SD ±3.09 nM. As for the experimental part: as §1

B1: SEQ ID NO: 206, cysteine pairs C8-C71^a (designed binder)
chain: NSKIPKACCVPTELSAISMLYLDENEKVVLKNYQDMVVEGCGCRVDFSDVGWNDWIVAPPGYHAFYCHGECPFPLADHLNSTNHAIVQTLVNSV
modifications: disulfides C8-C71 (intra)
As to B1, the Kd in [1] and in assay [2] was 49.7 nM in each case.

B2: SEQ ID NO: 206, cysteine pairs C67-C71^a, C8-C43^a, C9-C41^a (designed binder)
chain: B1 chain
modifications: disulfides C67-C71 (intra), C8-C43 (intra), C9-C41 (intra)
Turning to B2, the Kd in [3] and in assay [2] was 17.7 nM throughout.

B3: SEQ ID NO: 200, cysteine pairs C23-C27^a, C58-C91^a, C59-C93^a (designed binder)
chain: VDFSDVGWNDWIVAPPGYHAFYCHGECPFPLADHLNSTNHAIVQTLVNSVNSKIPKACCVPTELSAISMLYLDENEKVVLKNYQDMVVEGCGCR
modifications: disulfides C23-C27 (intra), C58-C91 (intra), C59-C93 (intra)
For B3, the Kd in assay [4] and in [2] was 18.6 nM throughout.

B4: SEQ ID NO: 200, cysteine pairs C23-C58^a (designed binder)
chain: B3 chain
modifications: disulfides C23-C58 (intra)
In the case of B4, the Kd in assay [5] and in assay [2] was 47.6 nM throughout.

B5: SEQ ID NO: 200, cysteine pairs C23-C27^a, C58-C91^b, C59-C93^b (designed binder)
chain: B3 chain
modifications: disulfides C23-C27 (intra), C58-C91 (inter), C59-C93 (inter)
notes: homodimer by intermolecular disulfide
Consider B5, for which the Kd in [6] and in assay [2] was 19.8 nM throughout.

B6: SEQ ID NO: 200, cysteine pairs C23-C27^a, C58-C93^a, C59-C91^a (designed binder)
chain: B3 chain
modifications: disulfides C23-C27 (intra), C58-C93 (intra), C59-C91 (intra)
Regarding B6, the Kd in assay [7] and in [2] was 20.1 nM each time.

B7: Recombinant polypeptide of clones 18 + 17 (designed binder)
chain: VDFSDVGWNDHAVAPPGYHAFYCHGECPFPLADHLNSTNHAIVQTLVNSVVDFSDVGWNDWIVAPPGYHAFYCHGECPFPLADHLNSDNHAIVQTLVNSV
For the molecule B7, in [8], the equilibrium dissociation constant (Kd) (usually the constant that tells how readily two partners part at equilibrium) stood at 66.4 nM.

B8: SEQ ID NO: 212, cysteine pairs C59-C59^b, C8-C41^a, C9-C43^a (designed binder)
chain: NSKIPKACCVPTELSAISMLYLDENEKVVLKNYQDMVVEGCGCRAQAKHKQRKRLKSSCKRHPLY
modifications: disulfide 8-41, 9-43; also: homodimer via intermolecular C59-C59 disulfide
notes: as for B5
In the case of B8, the Kd in assay [9] and in assay [2] was 18.1 nM each time.

B9: SEQ ID NO: 212, cysteine pairs C59-C59^b, C8-C43^a, C9-C41^a (designed binder)
chain: B8 chain
modifications: disulfide 9-41, 8-43; also: homodimer via intermolecular C59-C59 disulfide
notes: as for B5
B9: the dissociation constant Kd in [10] and in [2] was 19.3 nM each time.

B10: SEQ ID NO: 212, cysteine pairs C41-C59^a (designed binder)
chain: B8 chain
modifications: disulfide 41-59
Consider B10, for which the Kd in assay [11] and in assay [2] was 44.3 nM each time.
